Experimental data taken from patent US20100311648A1.

Legend:
[1] = biological target: human melanocortin-4 receptor (human) (UniProt P32245); assay: cell-based or functional assay
[2] = biological target: human melanocortin-4 receptor (human) (UniProt P32245); assay: [I125]-NDP-α-MSH competition, hMC4-R HEK-293 membranes
[3] = biological target: melanocortin-1 receptor (mouse (B-16 melanoma cells); in some instances human (hMC1-R)) (UniProt Q01727); assay: [I125]-NDP-α-MSH competition, MC1-R membranes
Chain of melanocortin-1 receptor (mouse (B-16 melanoma cells); in some instances human (hMC1-R)) (Q01727 whole entry): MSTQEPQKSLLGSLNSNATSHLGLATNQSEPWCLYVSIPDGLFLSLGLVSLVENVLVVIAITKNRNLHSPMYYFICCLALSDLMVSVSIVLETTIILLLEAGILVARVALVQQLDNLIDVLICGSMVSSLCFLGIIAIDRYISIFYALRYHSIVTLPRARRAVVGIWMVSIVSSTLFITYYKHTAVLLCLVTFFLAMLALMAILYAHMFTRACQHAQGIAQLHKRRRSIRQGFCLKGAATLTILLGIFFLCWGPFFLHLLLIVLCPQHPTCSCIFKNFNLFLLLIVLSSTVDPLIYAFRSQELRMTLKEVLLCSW

Chain of human melanocortin-4 receptor (human) (P32245 whole entry): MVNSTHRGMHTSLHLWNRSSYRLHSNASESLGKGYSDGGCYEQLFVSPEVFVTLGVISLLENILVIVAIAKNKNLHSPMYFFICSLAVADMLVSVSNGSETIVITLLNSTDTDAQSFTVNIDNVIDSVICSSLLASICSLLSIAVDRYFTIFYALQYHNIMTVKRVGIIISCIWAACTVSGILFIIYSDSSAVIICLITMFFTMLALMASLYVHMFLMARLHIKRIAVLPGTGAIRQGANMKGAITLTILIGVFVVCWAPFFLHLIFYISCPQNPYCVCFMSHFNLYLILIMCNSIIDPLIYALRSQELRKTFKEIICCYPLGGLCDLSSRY

| EC50, cAMP, 0.1 ng/mL Doxycycline [1] [nM] | EC50, cAMP, 10 ng/mL Doxycycline [1] [nM] | Intrinsic Activity, cAMP, 0.1 ng/mL Doxycycline [1] [%] | Intrinsic Activity, cAMP, 10 ng/mL Doxycycline [1] [%] | Ki [2] [nM] | Ki [3] [nM] | Substance |
| --- | --- | --- | --- | --- | --- | --- |
| 0.125 | 0.12 | 74 | 90 | 0.3 | – | Ac-Arg-cyclo(Glu-Dab-D-Phe(3,4-diF)-Arg-Trp-Orn)-NH2 (peptide) |
| 8 | 0.4 | 16 | 93 | 0.95 | 9 | Ac-Arg-cyclo(Glu-Dab-D-Phe(3-CF3)-Arg-Trp-Orn)-NH2 (peptide) |
| 16 | 0.47 | 23 | 84 | 9 | – | Ac-Arg-cyclo(Glu-Dap-D-Phe(2-Cl)-Arg-Trp-Orn)-NH2 (peptide) |
| 0.7 | 0.45 | 15 | 99 | 0.45 | – | Ac-Arg-cyclo(Glu-Dab-D-Phe(4-NO2)-Arg-Trp-Orn)-NH2 (peptide) |
| 48 | 0.55 | 71 | 87 | 75 | – | Ac-Arg-cyclo(Glu-Dab-D-Tyr-Arg-Trp-Orn)-NH2 (peptide) |
| 0.25 | 0.095 | 89 | 100 | 0.65 | 1 | Ac-D-Arg-cyclo(Orn-His-D-Phe(4-F)-Arg-Trp-Glu)-NH2 (peptide) |
| 0.15 | 0.16 | 28 | 97 | 0.25 | 0.15 | Ac-Arg-cyclo(Glu-Dab-D-Phe(4-OMe)-Arg-Trp-Orn)-NH2 (peptide) |
| 0.7 | 0.33 | 37 | 97 | 0.667 | – | Ac-Arg-cyclo(Glu-Dab-D-Phe(3,4,5-triF)-Arg-Trp-Orn)-NH2 (peptide) |
| – | 0.8 | 14 | 100 | 0.5 | – | Ac-Arg-cyclo(Glu-Dab-D-Phe(4-Ph)-Arg-Trp-Orn)-NH2 (peptide) |
| 0.42 | 0.22 | 35 | 97 | 0.4 | – | Ac-Arg-cyclo(Glu-Dab-D-Phe(3-Me)-Arg-Trp-Orn)-NH2 (peptide) |
| 1 | 0.153 | 41 | 98 | 1 | 143 | Ac-Arg-cyclo(Glu-Hyp-D-Phe(2-Cl)-Arg-Trp-Orn)-NH2 (peptide) |
| 0.3 | 0.135 | 48 | 100 | 0.833 | 5 | Ac-Arg-cyclo(Glu-Dab-D-Phe(4-CN)-Arg-Trp-Orn)-NH2 (peptide) |
| 0.85 | 0.075 | 55 | 91 | 2 | 33 | Ac-Arg-cyclo(Glu-Met(O2)-D-Phe(4-F)-Arg-Trp-Orn)-NH2 (peptide) |
| 0.21 | 0.085 | 94 | 94 | 1 | 2 | Ac-D-Arg-cyclo(Orn-His-D-Phe(2-Cl)-Arg-Trp-Glu)-NH2 (peptide) |
| – | 0.2 | 78 | 93 | 11 | – | Ac-Arg-cyclo(Glu-Dab-D-Phe(2-NO2)-Arg-Trp-Orn)-NH2 (peptide) |
| 0.09 | 0.035 | 91 | 89 | 0.7 | 0.8 | Ac-Arg-cyclo(Glu-Dab-D-Phe(2-F)-Arg-Trp-Orn)-NH2 (peptide) |
| 0.13 | 0.13 | 86 | 90 | 0.95 | – | Ac-D-Arg-cyclo(Orn-His-D-Phe(2-F)-Arg-Trp-Glu)-NH2 (peptide) |
| 0.075 | 0.075 | 56 | 92 | 0.25 | 0.7 | Ac-D-Arg-cyclo(Orn-His-D-Phe(3,4-diF)-Arg-Trp-Glu)-NH2 (peptide) |
| 0.165 | 0.2 | 16 | 90 | 0.145 | – | Ac-Arg-cyclo(Glu-Dab-D-Phe(4-Me)-Arg-Trp-Orn)-NH2 (peptide) |

| EC50, cAMP, 0.1 ng/mL Doxycycline [1] [nM] | EC50, cAMP, 10 ng/mL Doxycycline [1] [nM] | Intrinsic Activity, cAMP, 0.1 ng/mL Doxycycline [1] [%] | Intrinsic Activity, cAMP, 10 ng/mL Doxycycline [1] [%] | Ki [2] [nM] | Ki [3] [nM] | Substance |
| --- | --- | --- | --- | --- | --- | --- |
| – | 0.5 | 8 | 97 | 0.085 | – | Ac-Arg-cyclo(Glu-Dab-D-Phe(2,4-diMe)-Arg-Trp-Orn)-NH2 (peptide) |
| 1 | 0.08 | 57 | 90 | – | 53 | Ac-Arg-cyclo(Glu-Hyp-D-Phe(2-F)-Arg-Trp-Orn)-NH2 (peptide) |
| 0.95 | 0.12 | 64 | 95 | 2 | – | Ac-Arg-cyclo(Glu-Dab-D-Phe(3,5-diF)-Arg-Trp-Orn)-NH2 (peptide) |
| 0.125 | 0.06 | 85 | 96 | 0.6 | – | Ac-Arg-cyclo(Glu-Dab-D-Phe(2-CF3)-Arg-Trp-Orn)-NH2 (peptide) |
| 0.34 | 0.045 | 91 | 96 | – | 1 | Ac-Arg-cyclo(Glu-Dab-D-Phe(2-Cl)-Arg-Trp-Orn)-NH2 (peptide) |
| 75 | 2 | 23 | 94 | – | – | Ac-Arg-cyclo(Glu-Dab-D-Phe(3,4-diOMe)-Arg-Trp-Orn)-NH2 (peptide) |
| 0.95 | 0.14 | 36 | 93 | 1 | – | Ac-Arg-cyclo(Glu-Orn-D-Phe(3-Cl)-Arg-Trp-Orn)-NH2 (peptide) |
| 0.14 | 0.085 | 83 | 97 | 0.5 | – | Ac-Arg-cyclo(Glu-Dab-D-Phe(2-Me)-Arg-Trp-Orn)-NH2 (peptide) |
| 0.31 | 0.373 | 36 | 100 | 0.3 | – | Ac-Arg-cyclo(Glu-Ser(Bzl)-D-Phe(2-Cl)-Arg-Trp-Orn)-NH2 (peptide) |
| – | 4 | 6 | 93 | – | 545 | Ac-Arg-cyclo(Glu-Phe(3-C(═O)-NH2)-D-Phe(2-Cl)-D-Phe-Arg-Trp-Orn)-NH2 (peptide) |
| – | 0.95 | 6 | 89 | 4 | – | Ac-Arg-cyclo(Glu-Dap-D-Phe(3-Cl)-Arg-Trp-Orn)-NH2 (peptide) |
| 29 | 0.6 | 35 | 94 | 48 | – | Ac-Arg-cyclo(Glu-Dab-D-Phe(4-NH2)-Arg-Trp-Orn)-NH2 (peptide) |
| 2 | 0.55 | 17 | 95 | 0.7 | – | Ac-Arg-cyclo(Glu-Dab-D-Phe(3-NO2)-Arg-Trp-Orn)-NH2 (peptide) |
| 34 | 0.5 | 64 | 97 | 45 | – | Ac-Arg-cyclo(Glu-Dab-D-Phe(2-CN)-Arg-Trp-Orn)-NH2 (peptide) |
| 0.56 | 0.095 | 36 | 99 | – | 1 | Ac-Arg-cyclo(Glu-Dab-D-Phe(3-Cl)-Arg-Trp-Orn)-NH2 (peptide) |
| – | – | 2 | 9 | 4 | – | Ac-Arg-cyclo(Glu-Dab-D-Phe(4-tBu)-Arg-Trp-Orn)-NH2 (peptide) |
| 1 | 0.065 | 64 | 100 | – | – | Ac-Arg-cyclo(Glu-Dab-D-Phe(3-OMe)-Arg-Trp-Orn)-NH2 (peptide) |
| – | – | 0.5 | 53 | 0.06 | – | Ac-Arg-cyclo(Glu-Dab-D-Phe(4-CF3)-Arg-Trp-Orn)-NH2 (peptide) |
